Measurements: publication PMC3000357 (PLoS Genetics, 2010)
One block for each binder: values may come before it.

Assays:
[1] = molecular target: T1, YpbB/RecS complex, purified (Bacillus subtilis, UniProt P50728 1-352; P50729 1-496); assay: SEC; purified RecS (4 µM) or YpbB/RecS (4 µM) mixed on ice with SSB (16 µM or 40 µM, as monomers) and loaded onto a gel-filtration column; fractions on SDS-PAGE, Coomassie; conditions: both partners purified
T1 construct: YpbB of Bacillus subtilis; RecS (YpbC) of Bacillus subtilis; Equivalent amounts of YpbB and RecS appear to be present in the complex
T1 sequence (looked up) 1: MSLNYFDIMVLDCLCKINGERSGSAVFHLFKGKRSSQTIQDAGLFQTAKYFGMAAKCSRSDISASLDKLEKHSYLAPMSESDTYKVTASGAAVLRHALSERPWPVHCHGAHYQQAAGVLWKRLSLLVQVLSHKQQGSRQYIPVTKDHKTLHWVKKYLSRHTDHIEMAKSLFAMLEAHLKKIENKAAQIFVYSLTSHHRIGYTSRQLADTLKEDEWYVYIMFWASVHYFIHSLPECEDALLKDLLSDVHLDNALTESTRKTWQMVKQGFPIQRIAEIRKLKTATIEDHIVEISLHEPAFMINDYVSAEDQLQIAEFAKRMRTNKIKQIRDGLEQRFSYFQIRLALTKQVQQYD
T1 sequence (looked up) 2: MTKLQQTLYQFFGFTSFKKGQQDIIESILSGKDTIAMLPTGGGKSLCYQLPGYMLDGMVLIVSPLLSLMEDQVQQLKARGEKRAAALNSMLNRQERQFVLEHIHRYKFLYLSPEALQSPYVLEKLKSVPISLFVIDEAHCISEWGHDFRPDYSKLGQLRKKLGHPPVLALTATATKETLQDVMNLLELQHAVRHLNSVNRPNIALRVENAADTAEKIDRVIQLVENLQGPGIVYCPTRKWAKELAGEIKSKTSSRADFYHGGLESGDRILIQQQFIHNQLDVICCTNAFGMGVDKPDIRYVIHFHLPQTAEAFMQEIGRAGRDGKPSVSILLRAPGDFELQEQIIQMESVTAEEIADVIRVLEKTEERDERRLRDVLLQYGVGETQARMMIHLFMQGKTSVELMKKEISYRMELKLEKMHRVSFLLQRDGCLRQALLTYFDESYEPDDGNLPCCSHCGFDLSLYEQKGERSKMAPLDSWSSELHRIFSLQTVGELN

[2] = molecular target: T2, RecG, purified (Bacillus subtilis, UniProt O34942 1-682); assay: pull-down; streptavidin magnetic beads with a biotinylated 65-mer ssDNA coated by purified SSB or SSBΔ6 (80 pmol of tetramer; SSBΔ35: 100 pmol of tetramer, 60 pmol of tested protein); purified protein added in 20 mM Tris-HCl pH 7.5, 200 mM NaCl, 30 min, 20°C; SDS-PAGE, Coomassie; conditions: both partners purified
T2 construct: RecG DNA helicase of Bacillus subtilis; source: E. coli, purified (procedure in Text S1)
T2 sequence (looked up): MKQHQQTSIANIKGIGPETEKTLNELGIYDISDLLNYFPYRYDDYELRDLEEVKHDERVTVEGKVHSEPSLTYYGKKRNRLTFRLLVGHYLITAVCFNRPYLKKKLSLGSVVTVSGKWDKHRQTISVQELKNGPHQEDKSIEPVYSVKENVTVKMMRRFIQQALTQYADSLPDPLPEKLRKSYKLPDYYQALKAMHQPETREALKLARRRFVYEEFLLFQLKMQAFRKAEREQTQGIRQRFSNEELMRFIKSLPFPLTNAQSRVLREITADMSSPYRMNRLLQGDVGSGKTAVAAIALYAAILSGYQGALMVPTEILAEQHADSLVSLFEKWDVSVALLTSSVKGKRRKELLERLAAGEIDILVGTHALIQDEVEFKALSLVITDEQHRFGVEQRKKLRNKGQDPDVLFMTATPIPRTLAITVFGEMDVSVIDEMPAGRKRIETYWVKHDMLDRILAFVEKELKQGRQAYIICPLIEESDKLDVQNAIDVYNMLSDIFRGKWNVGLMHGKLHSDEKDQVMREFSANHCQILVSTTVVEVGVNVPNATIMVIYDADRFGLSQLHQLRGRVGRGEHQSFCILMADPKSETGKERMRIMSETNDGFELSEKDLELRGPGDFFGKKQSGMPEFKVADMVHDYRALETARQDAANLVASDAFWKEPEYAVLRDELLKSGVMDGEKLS

[3] = molecular target: T3, PriA, purified (Bacillus subtilis, UniProt P94461 1-805); assay: as above; conditions: both partners purified
T3 construct: PriA, primary replication restart protein (DNA helicase) of Bacillus subtilis; source: E. coli, purified (procedure in Text S1)
T3 sequence (looked up): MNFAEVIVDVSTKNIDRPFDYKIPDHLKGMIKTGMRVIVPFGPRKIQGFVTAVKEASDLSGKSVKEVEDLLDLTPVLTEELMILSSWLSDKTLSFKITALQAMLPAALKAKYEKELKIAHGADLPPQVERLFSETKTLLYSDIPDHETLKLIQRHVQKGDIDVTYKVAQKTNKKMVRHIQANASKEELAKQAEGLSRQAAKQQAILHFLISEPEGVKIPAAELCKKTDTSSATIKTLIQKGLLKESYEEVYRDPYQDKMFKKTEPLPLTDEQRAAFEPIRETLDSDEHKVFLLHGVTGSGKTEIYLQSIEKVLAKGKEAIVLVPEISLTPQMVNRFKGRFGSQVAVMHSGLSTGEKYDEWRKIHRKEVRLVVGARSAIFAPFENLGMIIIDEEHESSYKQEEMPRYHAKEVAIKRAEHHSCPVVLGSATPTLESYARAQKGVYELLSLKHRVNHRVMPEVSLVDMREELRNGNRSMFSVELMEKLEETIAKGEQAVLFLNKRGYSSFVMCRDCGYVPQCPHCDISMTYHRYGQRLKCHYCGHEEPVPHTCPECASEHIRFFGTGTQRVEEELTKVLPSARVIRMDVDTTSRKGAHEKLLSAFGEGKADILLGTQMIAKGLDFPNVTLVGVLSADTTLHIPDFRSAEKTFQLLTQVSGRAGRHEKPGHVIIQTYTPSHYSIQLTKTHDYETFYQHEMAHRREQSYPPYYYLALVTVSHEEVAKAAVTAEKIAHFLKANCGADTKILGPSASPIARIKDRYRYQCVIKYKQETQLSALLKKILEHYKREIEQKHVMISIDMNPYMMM

[4] = molecular target: T4, RecO, purified (Bacillus subtilis, UniProt P42095 1-255); assay: as above; conditions: both partners purified
T4 construct: RecO recombination mediator protein of Bacillus subtilis; source: E. coli, purified (procedure in Text S1)
T4 sequence (looked up): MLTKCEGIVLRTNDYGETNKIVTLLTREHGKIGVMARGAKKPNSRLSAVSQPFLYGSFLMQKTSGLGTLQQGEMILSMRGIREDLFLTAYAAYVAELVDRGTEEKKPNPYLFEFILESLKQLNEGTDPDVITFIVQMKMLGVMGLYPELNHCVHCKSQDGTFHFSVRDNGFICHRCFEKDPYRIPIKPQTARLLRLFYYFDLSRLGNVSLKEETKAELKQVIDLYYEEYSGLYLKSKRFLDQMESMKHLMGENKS

[5] = molecular target: T5, RecQ, purified (Bacillus subtilis, UniProt O34748 1-591); assay: as above; conditions: both partners purified
T5 construct: RecQ DNA helicase (initially annotated YocI) of Bacillus subtilis; also called YocI; source: E. coli, purified (procedure in Text S1)
T5 sequence (looked up): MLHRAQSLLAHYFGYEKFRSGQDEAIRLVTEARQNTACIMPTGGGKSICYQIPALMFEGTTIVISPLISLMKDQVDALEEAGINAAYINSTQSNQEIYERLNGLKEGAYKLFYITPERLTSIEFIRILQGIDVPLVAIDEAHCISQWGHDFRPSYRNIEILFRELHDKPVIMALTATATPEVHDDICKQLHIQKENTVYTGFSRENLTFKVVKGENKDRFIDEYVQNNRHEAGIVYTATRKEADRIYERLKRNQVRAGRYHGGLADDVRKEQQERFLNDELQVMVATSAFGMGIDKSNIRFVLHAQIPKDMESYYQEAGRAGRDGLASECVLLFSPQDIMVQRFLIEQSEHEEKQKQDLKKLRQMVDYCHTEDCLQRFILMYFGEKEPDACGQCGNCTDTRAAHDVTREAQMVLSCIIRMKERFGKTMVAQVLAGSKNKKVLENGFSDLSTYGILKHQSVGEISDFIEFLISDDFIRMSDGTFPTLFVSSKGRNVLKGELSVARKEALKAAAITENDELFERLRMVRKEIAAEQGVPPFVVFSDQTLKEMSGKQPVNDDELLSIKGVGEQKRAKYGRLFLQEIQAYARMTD

[6] = molecular target: T6, SSBΔ6 (Bacillus subtilis, UniProt P37455 1-166); assay: pull-down on ssDNA magnetic beads; 50 pmol oligo, 80 pmol SSBΔ6; 20 mM Tris-HCl pH 7.5, 200 mM NaCl, 20 °C, 800 rpm; beads washed in same buffer; conditions: protein: recombinant; chain copies: 4; label: 5' biotin, on streptavidin magnetic beads; single strand
T6 sequence: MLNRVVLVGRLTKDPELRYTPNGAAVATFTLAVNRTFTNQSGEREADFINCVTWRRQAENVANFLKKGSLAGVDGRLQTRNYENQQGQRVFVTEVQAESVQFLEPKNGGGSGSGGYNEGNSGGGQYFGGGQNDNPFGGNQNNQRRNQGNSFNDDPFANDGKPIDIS

[7] = molecular target: T7, SSBΔ35 (Bacillus subtilis, UniProt P37455 1-137); assay: pull-down on ssDNA magnetic beads; 20 mM Tris-HCl pH 7.5, 200 mM NaCl, 20 °C, 800 rpm; beads washed in same buffer; conditions: protein: recombinant; chain copies: 4; label: 5' biotin, on streptavidin magnetic beads; single strand
T7 sequence: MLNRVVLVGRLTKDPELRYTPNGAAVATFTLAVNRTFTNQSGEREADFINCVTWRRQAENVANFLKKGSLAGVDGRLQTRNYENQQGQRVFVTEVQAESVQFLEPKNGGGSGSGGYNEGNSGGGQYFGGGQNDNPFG

[8] = molecular target: T8, SSB (Bacillus subtilis, UniProt P37455 1-172); assay: pull-down on ssDNA magnetic beads; 50 pmol oligo, 80 pmol SSB; 20 mM Tris-HCl pH 7.5, 200 mM NaCl, 20 °C, 800 rpm; beads washed in same buffer; conditions: protein: recombinant; chain copies: 4; label: 5' biotin, on streptavidin magnetic beads; single strand
T8 sequence: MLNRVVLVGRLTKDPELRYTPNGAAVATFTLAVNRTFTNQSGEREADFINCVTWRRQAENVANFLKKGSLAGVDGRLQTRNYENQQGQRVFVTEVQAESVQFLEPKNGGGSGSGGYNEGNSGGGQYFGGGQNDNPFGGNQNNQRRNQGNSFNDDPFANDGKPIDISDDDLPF

[9] = molecular target: T9, RecS, purified (Bacillus subtilis, UniProt P50729 1-496); assay: SEC; purified RecS (4 µM) or YpbB/RecS (4 µM) mixed on ice with SSB (16 µM or 40 µM, as monomers) and loaded onto a gel-filtration column; fractions on SDS-PAGE, Coomassie; conditions: both partners purified
T9 construct: RecS (also annotated YpbC), RecQ paralogue of Bacillus subtilis; theoretical mass 57 kDa; also called YpbC; source: E. coli, purified (procedure in Text S1)
T9 sequence (looked up): T1 sequence (looked up) 2

binding result [1]: binds
binding result [2]: binds
binding result [3]: binds
binding result [4]: binds
binding result [5]: binds
B1: Bacillus subtilis Single-Stranded DNA Binding protein (SSB), purified (natural protein, UniProt P37455 1-172, looked up)
chain: T8 sequence
notes: Used as a tetramer; source: E. coli, purified (procedure in Text S1)

B2: 65-mer biotinylated ssDNA oligonucleotide (ssDNA)
DNA: CGTCGTTTTACAACGTCGTGACTGGGAAAACCCTGGCGTTACCCAACTTAATCGCCTTGCAGCA
modifications: biotin-TEG
binding result [6]: binds
binding result [7]: binds
binding result [8]: binds

binding result [9]: binds
B3: YpbB, produced in E. coli with RecS (natural protein, Bacillus subtilis, UniProt P50728 1-352, looked up)
chain: T1 sequence (looked up) 1
notes: YpbB, protein of unknown function of Bacillus subtilis, encoded immediately upstream of recS; Could not be prepared as a soluble protein alone; source: E. coli, purified only as a complex with RecS (procedure in Text S1)
